We go through three molecules from US20170211067, “ANTAGONISTIC CTLA-4 APTAMERS AND APPLICATIONS THEREOF IN ENHANCING IMMUNE ACTIVITY” (Academia Sinica, published 2017).

The Kd is the free concentration of one partner at which half of the binding sites on the other are occupied at equilibrium, for simple one-to-one binding.

In data set [1] the target is T1, CTLA-4 (UniProt P16410 P16410:36-161). As to the kind of experiment: CTLA-4 stably expressing 293 cells; no binding to non-transfected 293T by flow at 10 nM. As to conditions: tags: expressed on CTLA-4-transfected 293T / stably expressing 293 cells; label: AlexaFluor 647 (flow cytometry). As for the experimental part:
(§1) Panels A and B are FACS analysis diagrams showing the binding activities of selected aptamers to CTLA-4 expressed on wild-type 293T cells. […] The cells of panel A and panel B were incubated with 10 nM of AlexaFluor 647 labeled CA7, CA21, CA32 and CA82 aptamer as indicated. After washing away the unbounded aptamer, the fluorescent signals were measured by flow cytometry and the results of wild-type 293T cells are shown in panel A. The results for CTLA-4 expressing wild-type 293T cells are shown in panel B. Panels C, D, E and F show the CTLA-4 binding affinity of the aptamers CA7, CA21, CA32 and CA82, respectively. The four aptamers were selected and characterized for their binding affinity against CTLA-4 expressing cells. These aptamers were first synthesized and followed by 2-fold serial dilution which started from 250 nM. Six dosage points were analyzed after incubation of the selected pool with CTLA-4 stably expressed 293 cells.
(§2) Four aptamers (CA7, CA21, CA32 and CA82) isolated by the method described in Example 1 were selected by their higher structural stability. The binding specificity of these four aptamers were analyzed by flow cytometry. All four of these apatmers specifically recognized CTLA-4-expressing cells, except a relatively low non-specific binding signal in CA7 against wild type 293 cells (FIG. 2, panels A and B). […]
(In general: Flow cytometry measures light scatter and fluorescence of single cells or particles in a stream.)

In data set [2] the target is T1, CTLA-4. The data set is described as follows: CTLA-4 stably expressing 293 cells, 2-fold dilutions from 250 nM; no binding to non-transfected 293T by flow at 10 nM. As to conditions: tags: expressed on CTLA-4-transfected 293T / stably expressing 293 cells; label: AlexaFluor 647 (flow cytometry); possible G-quadruplex; Mfold secondary structure dG -10.6. How it is done: as §1, §2

Data set [3] has as its target CTLA-4 (Mus musculus, UniProt P09793 P09793:36-161). The data set is described as follows: CA21 stated to cross-react with mouse CTLA-4, assay not described. Conditions: label: AlexaFluor 647 (flow cytometry).

T1 sequence (P16410 36-161, one chain of several): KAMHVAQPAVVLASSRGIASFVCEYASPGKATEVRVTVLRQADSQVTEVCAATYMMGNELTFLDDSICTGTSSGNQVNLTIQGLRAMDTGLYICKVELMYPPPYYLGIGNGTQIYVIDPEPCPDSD
Chain of CTLA-4 (Mus musculus, UniProt P09793 P09793:36-161) (P09793 36-161, one chain of several): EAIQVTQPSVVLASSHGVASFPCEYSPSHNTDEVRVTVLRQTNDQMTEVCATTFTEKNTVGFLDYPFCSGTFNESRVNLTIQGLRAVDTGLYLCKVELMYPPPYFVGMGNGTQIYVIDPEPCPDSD

B1: CA32 (ssDNA)
DNA: TCCCTACGGCGCTAACGTCCACACTCAGAAAACAGAATAGGGGGTAGCCACCGTGCTACAAC
In the data set with CTLA-4 [1], B1 registered a Kd of 61.8 nM.

B2: CA21 (ssDNA)
DNA: TCCCTACGGCGCTAACGATGGTGAAAATGGGCCTAGGGTGGACGGTGCCACCGTGCTACAAC
In the data set with CTLA-4 [2], B2 had a Kd of 11.8 nM. Further, the binding result with CTLA-4 [3] was “binds”.

B3: CA82 (ssDNA)
DNA: TCCCTACGGCGCTAACCGATCGAAAATGTCCAGGGAGTTGTCTGTAGCCACCGTGCTACAAC
Molecule B3 showed a Kd with CTLA-4 [1] of 36.5 nM. In other words, the double-digit nanomolar range.
